Where two headings read alike, the source gives them in different places. One block for each binder: values may come before it.
Legend:
[1] = molecular target: T1, HER2-F616A expressed on CHO-K1 cells (human, UniProt P04626 23-1255); assay: flow cytometry on CHO-K1 cells expressing HER2-F616A
T1 construct: also called F616A point mutant; not shown: PA tag at the N terminus; RAP tag and MAP tag at the C terminus

[2] = molecular target: T2, HER2-W614A expressed on CHO-K1 cells (human, UniProt P04626 23-1255); assay: flow cytometry on CHO-K1 cells expressing the point mutant
T2 construct: also called W614A point mutant; not shown: PA tag at the N terminus; RAP tag and MAP tag at the C terminus

[3] = molecular target: T3, HER2 peptide p603-622 (amino acids 603 to 622 of human HER2) (human); assay: SPR Biacore, mAb on chip, peptide analyte, 1:1 fit
T3 construct: Synthetic peptide; also called wild-type HER2 peptide
T3 peptide: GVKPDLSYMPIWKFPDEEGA

[4] = molecular target: T4, HER2 peptide p612-621 (human); assay: SPR Biacore, mAb on chip, peptide analyte, 1:1 fit
T4 peptide: PIWKFPDEEG

[5] = molecular target: T5, HER2 peptide p609-620 (human); assay: SPR Biacore, mAb on chip, peptide analyte, 1:1 fit
T5 peptide: SYMPIWKFPDEE

[6] = molecular target: T6, HER2 peptide p610-618 (human); assay: SPR Biacore, mAb on chip, peptide analyte, 1:1 fit
T6 peptide: YMPIWKFPD

[7] = molecular target: T7, HER2 peptide p613-620 (human); assay: SPR Biacore, mAb on chip, peptide analyte, 1:1 fit
T7 peptide: IWKFPDEE

[8] = molecular target: T8, HER2 peptide p610-619 (human); assay: SPR Biacore, mAb on chip, peptide analyte, 1:1 fit
T8 peptide: YMPIWKFPDE

[9] = molecular target: T9, HER2 peptide p611-621 (human); assay: SPR Biacore, mAb on chip, peptide analyte, 1:1 fit
T9 peptide: MPIWKFPDEEG

[10] = molecular target: T10, HER2 peptide p613-619 (human); assay: SPR Biacore, mAb on chip, peptide analyte, 1:1 fit
T10 peptide: IWKFPDE

[11] = molecular target: T11, W614A peptide (HER2 603-622 with W614A) (human); assay: SPR Biacore, mAb on chip, peptide analyte (ka N.D.)
T11 peptide: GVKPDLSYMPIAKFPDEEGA

[12] = molecular target: T2, HER2-W614A expressed on CHO-K1 cells; assay: flow cytometry on CHO-K1 cells expressing HER2-W614A
[13] = molecular target: T3, HER2 peptide p603-622 (amino acids 603 …); assay: SPR Biacore, mAb on chip, peptide analyte, 1:1 fit
[14] = molecular target: T12, HER2 peptide p610-621 (human); assay: SPR Biacore, mAb on chip, peptide analyte, 1:1 fit;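 further: all binding measurements run at 25 °C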
T12 peptide: YMPIWKFPDEEG

[15] = molecular target: T13, HER2 peptide p612-622 (human); assay: SPR Biacore, mAb on chip, peptide analyte, 1:1 fit;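 further: all binding measurements run at 25 °C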
T13 peptide: PIWKFPDEEGA

[16] = molecular target: T14, HER2 peptide p612-619 (human); assay: SPR Biacore, mAb on chip, peptide analyte, 1:1 fit;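 further: all binding measurements run at 25 °C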
T14 peptide: PIWKFPDE

[17] = molecular target: T15, HER2 peptide p613-618 (human); assay: SPR Biacore, mAb on chip, peptide analyte, 1:1 fit;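 further: all binding measurements run at 25 °C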
T15 peptide: IWKFPD

[18] = molecular target: T16, HER2 peptide p614-620 (human); assay: SPR Biacore, mAb on chip, peptide analyte, 1:1 fit;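 further: all binding measurements run at 25 °C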
T16 peptide: WKFPDEE

[19] = molecular target: T17, HER2 peptide p613-621 (human); assay: SPR Biacore, mAb on chip, peptide analyte, 1:1 fit;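 further: all binding measurements run at 25 °C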
T17 peptide: IWKFPDEEG

[20] = molecular target: T18, HER2 peptide p614-622 (human); assay: SPR Biacore, mAb on chip, peptide analyte, 1:1 fit
T18 peptide: WKFPDEEGA

[21] = molecular target: T19, HER2 peptide p609-621 (human); assay: SPR Biacore, mAb on chip, peptide analyte, 1:1 fit
T19 peptide: SYMPIWKFPDEEG

[22] = molecular target: T9, HER2 peptide p611-621; assay: SPR Biacore, mAb on chip, peptide analyte, 1:1 fit
[23] = molecular target: T1, HER2-F616A expressed on CHO-K1 cells; assay: flow cytometry on CHO-K1 cells expressing the point mutant
[24] = molecular target: T20, HER2-K615A expressed on CHO-K1 cells (human, UniProt P04626 23-1255); assay: as above
T20 construct: also called K615A point mutant; not shown: PA tag at the N terminus; RAP tag and MAP tag at the C terminus

[25] = molecular target: T3, HER2 peptide p603-622 (amino acids 603 …); assay: SPR Biacore, mAb on chip, peptide analyte, 1:1 fit; Table 2 (deletion mutants series)

binding result [1]: binds | Kd [3]: 3.67 nM | koff [3]: 0.00033 s⁻¹ | kon [3]: 90100 M⁻¹ s⁻¹ | Kd [4]: 3.49 nM | koff [4]: 0.000683 s⁻¹ | kon [4]: 196000 M⁻¹ s⁻¹ | Kd [5]: 1.24 nM | koff [5]: 0.000291 s⁻¹ | kon [5]: 234000 M⁻¹ s⁻¹ | Kd [6]: 0.599 nM | koff [6]: 0.000225 s⁻¹ | kon [6]: 376000 M⁻¹ s⁻¹ | Kd [7]: 13.1 nM | koff [7]: 0.00371 s⁻¹ | kon [7]: 283000 M⁻¹ s⁻¹ | Kd [8]: 1.19 nM | koff [8]: 0.00038 s⁻¹ | kon [8]: 319000 M⁻¹ s⁻¹ | Kd [9]: 1.89 nM | koff [9]: 0.000411 s⁻¹ | kon [9]: 218000 M⁻¹ s⁻¹ | Kd [10]: 10.3 nM | koff [10]: 0.0041 s⁻¹ | kon [10]: 397000 M⁻¹ s⁻¹ | koff [11]: 0.00438 s⁻¹
B1: H2Mab-250 antibody (antibody, V domains shown)
VH: EVQLVESGGGLVQPGGSLKLSCAASGFTFSNYGMSWVRQTPDRRLELVATINNNGGGTYYPDSVKGRFTISRDNAKNTLYLQMSSLKSEDTAMYYCTSPGLLWDAWGAGTTVTVSS
VL: not shown
notes: Mouse monoclonal from a hybridoma (immunogen HER2ec made in LN229 cells); also called antibody of the present invention
binding result [2]: no binding (tested: 10 g/mL (so in the source))

binding result [12]: binds | Kd [13]: 22.8 nM | koff [13]: 0.00534 s⁻¹ | Kd [14]: 8.57 nM | koff [14]: 0.00519 s⁻¹ | kon [14]: 679000 M⁻¹ s⁻¹ | Kd [15]: 39.7 nM | koff [15]: 0.0244 s⁻¹ | kon [15]: 615000 M⁻¹ s⁻¹ | Kd [16]: 22.2 nM | koff [16]: 0.0235 s⁻¹ | kon [16]: 1.06e+06 M⁻¹ s⁻¹ | Kd [17]: 915 nM | koff [17]: 0.013 s⁻¹ | kon [17]: 14200 M⁻¹ s⁻¹ | Kd [18]: 41200 nM | koff [18]: 0.0152 s⁻¹ | kon [18]: 370 M⁻¹ s⁻¹ | Kd [19]: 13000 nM | koff [19]: 0.00955 s⁻¹ | kon [19]: 736 M⁻¹ s⁻¹ | Kd [20]: 26400 nM | koff [20]: 0.0115 s⁻¹ | kon [20]: 435 M⁻¹ s⁻¹ | Kd [21]: 8.06 nM | koff [21]: 0.00465 s⁻¹ | kon [21]: 577000 M⁻¹ s⁻¹ | Kd [22]: 16.8 nM | koff [22]: 0.00961 s⁻¹ | kon [22]: 571000 M⁻¹ s⁻¹ | kon [25]: 234000 M⁻¹ s⁻¹
B2: H2Mab-214 antibody (antibody, V domains shown)
VH: QVTLKESGPGILQPSQTLSLTCSFSGFSLSTSGMGVSWIRQPSGKGLEWLAHIFWDDDKRYNPSLKSRLTISKDTSRNKVFLKITSVDTADTATYYCARRVVATDWYFDVWGAGTTVTVSS
VL: DIVLTQSPASLAVSLGQRATISCRASESVEYYGTTLMQWYQQKPGQPPKLLIYAASKVESGVPARFSGSGSGTDFSLNIHPVEEDDVAMYFCQQSRKVPLTFGAGTKLELKR
notes: as for B1
binding result [23]: no binding (tested: 10 g/mL (so in the source)) | binding result [24]: no binding (tested: 10 g/mL (so in the source))

From patent US20240002531A1 (ONO PHARMACEUTICAL, published 2024)
